# T1: human IL-10 receptor (hIL-10R alpha and beta chains) on HEK-Blue IL-10 reporter cells (human, UniProt Q13651 22-578; Q08334 20-325)
# T1 sequence 1: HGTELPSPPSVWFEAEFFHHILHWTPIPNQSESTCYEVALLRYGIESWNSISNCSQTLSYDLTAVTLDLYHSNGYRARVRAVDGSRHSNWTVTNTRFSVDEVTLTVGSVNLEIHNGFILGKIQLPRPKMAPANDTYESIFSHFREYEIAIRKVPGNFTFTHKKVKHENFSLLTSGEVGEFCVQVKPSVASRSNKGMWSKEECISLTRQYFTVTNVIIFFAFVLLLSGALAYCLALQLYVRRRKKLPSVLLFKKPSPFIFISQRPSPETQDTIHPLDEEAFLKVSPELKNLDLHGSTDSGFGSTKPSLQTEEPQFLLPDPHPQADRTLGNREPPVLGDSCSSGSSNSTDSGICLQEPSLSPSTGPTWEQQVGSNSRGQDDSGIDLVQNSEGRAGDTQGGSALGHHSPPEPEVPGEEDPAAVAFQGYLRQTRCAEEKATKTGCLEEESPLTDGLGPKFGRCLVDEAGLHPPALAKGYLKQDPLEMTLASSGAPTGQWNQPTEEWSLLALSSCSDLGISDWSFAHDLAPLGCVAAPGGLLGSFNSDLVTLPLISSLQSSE
# T1 sequence 2: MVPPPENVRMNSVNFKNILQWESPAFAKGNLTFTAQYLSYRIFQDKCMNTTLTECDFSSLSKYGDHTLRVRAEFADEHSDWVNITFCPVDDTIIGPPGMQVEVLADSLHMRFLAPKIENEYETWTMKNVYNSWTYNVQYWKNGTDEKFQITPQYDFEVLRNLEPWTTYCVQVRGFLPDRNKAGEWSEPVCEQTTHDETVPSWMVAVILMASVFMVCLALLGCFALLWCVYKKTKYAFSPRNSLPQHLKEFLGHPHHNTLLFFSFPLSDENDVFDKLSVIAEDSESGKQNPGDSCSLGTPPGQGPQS
# Target: T1, human IL-10 receptor (hIL-10R alpha and …)
# Experiment: cell-based or functional assay
Binder,Abs 630 (25 nM),Abs 630 (100 nM)
IL10R binding molecule of SEQ ID NO: 282 (bispecific antibody) QVQLQESGGGSVQAGGSLRLSCAVSGYAYSTYCMGWFRQAPGKEREGVAAIDSGGSTSYADSVKGRFTISKDNAKNTLYLRMNSLKPEDTAMYYCAAVPPPPDGGSCLFLGPEIKVSKADFRYWGQGTQVTVSSGGGSQVQLQESGGGSVQAGGSLRLSCAASGYSYSSYCMGWFRQAPGKEREGVATIDSDGMTRYADSVKGRFTISKDNAKNTLYLQMNSLKPEDTAMYYCAAPLYDCDSGAVGRNPPYWGQGTQVTVSSASHHHHHH,0.44 Abs 630,0.36 Abs 630
IL10R binding molecule of SEQ ID NO: 276 (bispecific antibody) QVQLQESGGGSVQAGGSLRLSCAASGYTYSMYCMGWFRQAPGKEREGVAQINSDGSTSYADSVKGRFTISKDNAKNTLYLQMNSLKPEDTAMYYCAADSRVYGGSWYERLCGPYTYEYNYWGQGTQVTVSSGGGSQVQLQESGGGSVQTGGSLRLSCAASGYTYLRGCMGWFRQAPGKEREGVAVMDVVGDRRSYIDSVKGRFTISRDNAANSVYLQMDNLKPEDTAMYYCTAGPNCVGWRSGLDYWGQGTQVTVSSASHHHHHH,0.46 Abs 630,0.36 Abs 630
IL10R binding molecule of SEQ ID NO: 275 (bispecific antibody) QVQLQESGGGSVQAGGSLRLSCAASGYTYSMYCMGWFRQAPGKEREGVAQINSDGSTSYADSVKGRFTISKDNAKNTLYLQMNSLKPEDTAMYYCAADSRVYGGSWYERLCGPYTYEYNYWGQGTQVTVSSGGGSQVQLQESGGGSVQAGGSLRLSCAASGYSYSSYCMGWFRQAPGKEREGVATIDSDGMTRYADSVKGRFTISKDNAKNTLYLQMNSLKPEDTAMYYCAAPLYDCDSGAVGRNPPYWGQGTQVTVSSASHHHHHH,0.51 Abs 630,0.36 Abs 630
IL10R binding molecule of SEQ ID NO: 257 (bispecific antibody) QVQLQESGGGSVQAGGSLRLSCAASRYLYSIDYMAWFRQSPGKEREPVAVIYTASGATFYPDSVKGRFTISQDNAKMTVYLQMNSLKSEDTAMYYCAAVRKTDSYLFDAQSFTYWGQGTQVTVSSGGGSQVQLQESGGGSVQAGGSLRLSCAASGYTYSSYCMGWFRQAPGKEREGVAHIDSDGSTSYADSVKGRFTISKDNAKNTLYLQMNSLKPEDTAMYYCAADPIPGPGYCDGGPNKYWGQGTQVTVSSASHHHHHH,0.45 Abs 630,0.36 Abs 630
IL10R binding molecule of SEQ ID NO: 279 (bispecific antibody) QVQLQESGGGSVQAGGSLRLSCAVSGYAYSTYCMGWFRQAPGKEREGVAAIDSGGSTSYADSVKGRFTISKDNAKNTLYLRMNSLKPEDTAMYYCAAVPPPPDGGSCLFLGPEIKVSKADFRYWGQGTQVTVSSGGGSQVQLQESGGGSVQAGGSLRLSCAASRYTYNSYCMGWFRQAPGKEREGVATIDSDGMTRYADSVKGRFTISKDNAKNTLYLQMNSLKPEDTAMYYCAADADCTIAAMTTNPLGQGTQVTVSSASHHHHHH,0.49 Abs 630,0.39 Abs 630
IL10R binding molecule of SEQ ID NO: 281 (bispecific antibody) QVQLQESGGGSVQAGGSLRLSCAVSGYAYSTYCMGWFRQAPGKEREGVAAIDSGGSTSYADSVKGRFTISKDNAKNTLYLRMNSLKPEDTAMYYCAAVPPPPDGGSCLFLGPEIKVSKADFRYWGQGTQVTVSSGGGSQVQLQESGGGSVEAGGSLRLSCAASGYTHSSYCMGWFRQAPGKEREGVAAIDVDGSTTYADSVKGRFTISKDNAKNTLYLQMNSLKPEDTGMYYCAAEFADCSSNYFLPPGAVRYWGQGTQVTVSSASHHHHHH,0.66 Abs 630,0.69 Abs 630
IL10R binding molecule of SEQ ID NO: 277 (bispecific antibody) QVQLQESGGGSVQAGGSLRLSCAVSGYAYSTYCMGWFRQAPGKEREGVAAIDSGGSTSYADSVKGRFTISKDNAKNTLYLRMNSLKPEDTAMYYCAAVPPPPDGGSCLFLGPEIKVSKADFRYWGQGTQVTVSSGGGSQVQLQESGGGSVQAGGSLRLSCAASGYTYSSGCMGWFRQAPGKEREAVAAINSDGSTSYADSVKGRFTISKDNAKNTLYLQMNSLKPEDTAMYYCAAEPYCSGGYPRWSVAEFGYWGQGTQVTVSSASHHHHHH,1.19 Abs 630,1 Abs 630
IL10R binding molecule of SEQ ID NO: 280 (bispecific antibody) QVQLQESGGGSVQAGGSLRLSCAVSGYAYSTYCMGWFRQAPGKEREGVAAIDSGGSTSYADSVKGRFTISKDNAKNTLYLRMNSLKPEDTAMYYCAAVPPPPDGGSCLFLGPEIKVSKADFRYWGQGTQVTVSSGGGSQVQLQESGGGSVQAGGSLRLSCTVSRYTASVNYMGWFRQAPGKEREGVATIFTGAGTTYYANSVKGRFTISRDNAKNTAYLQMNSLKPEDTAIYYCAVDFRGGLLYRPAYEYTYRGQGTQVTVSSASHHHHHH,0.49 Abs 630,0.37 Abs 630
IL10R binding molecule of SEQ ID NO: 278 (bispecific antibody) QVQLQESGGGSVQAGGSLRLSCAVSGYAYSTYCMGWFRQAPGKEREGVAAIDSGGSTSYADSVKGRFTISKDNAKNTLYLRMNSLKPEDTAMYYCAAVPPPPDGGSCLFLGPEIKVSKADFRYWGQGTQVTVSSGGGSQVQLQESGGGSVQAGGSLRLSCAASGYTYSSYCMGWFRQAPGKEREGVAHIDSDGSTSYADSVKGRFTISKDNAKNTLYLQMNSLKPEDTAMYYCAADPIPGPGYCDGGPNKYWGQGTQVTVSSASHHHHHH,1.61 Abs 630,1.18 Abs 630

# Further lines, results first:
Abs 630 (25 nM),Abs 630 (100 nM),Binder
0.48 Abs 630,0.39 Abs 630,IL10R binding molecule of SEQ ID NO: 285 (bispecific antibody) QVQLQESGGGSVQAGGSLRLSCTVSGYTYSSNCMGWFRQAPGKEREGVATIYTGGGNTYYADSVKGRFTISQDNAKNTVYLQMNNLKPEDTAMYYCAAEPLSRVYGGSCPTPTFDYWGQGTQVTVSSGGGSQVQLQESGGGSVQAGGSLRLSCAASGYTYSSYCMGWFRQAPGKEREGVAHIDSDGSTSYADSVKGRFTISKDNAKNTLYLQMNSLKPEDTAMYYCAADPIPGPGYCDGGPNKYWGQGTQVTVSSASHHHHHH
0.48 Abs 630,0.39 Abs 630,IL10R binding molecule of SEQ ID NO: 283 (bispecific antibody) QVQLQESGGGSVQAGGSLRLSCAVSGYAYSTYCMGWFRQAPGKEREGVAAIDSGGSTSYADSVKGRFTISKDNAKNTLYLRMNSLKPEDTAMYYCAAVPPPPDGGSCLFLGPEIKVSKADFRYWGQGTQVTVSSGGGSQVQLQESGGGSVQTGGSLRLSCAASGYTYLRGCMGWFRQAPGKEREGVAVMDVVGDRRSYIDSVKGRFTISRDNAANSVYLQMDNLKPEDTAMYYCTAGPNCVGWRSGLDYWGQGTQVTVSSASHHHHHH
0.45 Abs 630,0.34 Abs 630,IL10R binding molecule of SEQ ID NO: 284 (bispecific antibody) QVQLQESGGGSVQAGGSLRLSCTVSGYTYSSNCMGWFRQAPGKEREGVATIYTGGGNTYYADSVKGRFTISQDNAKNTVYLQMNNLKPEDTAMYYCAAEPLSRVYGGSCPTPTFDYWGQGTQVTVSSGGGSQVQLQESGGGSVQAGGSLRLSCAASGYTYSSGCMGWFRQAPGKEREAVAAINSDGSTSYADSVKGRFTISKDNAKNTLYLQMNSLKPEDTAMYYCAAEPYCSGGYPRWSVAEFGYWGQGTQVTVSSASHHHHHH
0.46 Abs 630,0.39 Abs 630,IL10R binding molecule of SEQ ID NO: 286 (bispecific antibody) QVQLQESGGGSVQAGGSLRLSCTVSGYTYSSNCMGWFRQAPGKEREGVATIYTGGGNTYYADSVKGRFTISQDNAKNTVYLQMNNLKPEDTAMYYCAAEPLSRVYGGSCPTPTFDYWGQGTQVTVSSGGGSQVQLQESGGGSVQAGGSLRLSCAASRYTYNSYCMGWFRQAPGKEREGVATIDSDGMTRYADSVKGRFTISKDNAKNTLYLQMNSLKPEDTAMYYCAADADCTIAAMTTNPLGQGTQVTVSSASHHHHHH

# Reference: patent US20250163167A1 (SYNTHEKINE, published 2025)
